We go through five molecules from patent US20180043006A1 (UNIVERSITY OF VIRGINIA PATENT FOUNDATION, published 2018).

Test [1] deals with T1, HLA-DR molecule DRB1*0101 (human).
T1 construct: Used as a PE-conjugated peptide/MHCII tetramer assembled by a cited method
Put plainly: peptide displayed on HLA-DR tetramer (TGEM).

Test [2] concerns the target T2, HLA-DR molecule DRB1*0701 (human).
T2 construct: Used as a PE-conjugated peptide/MHCII tetramer assembled by a cited method
Put plainly: peptide displayed on HLA-DR tetramer (TGEM).

Test [3] addresses T3, HLA-DR molecule DRB1*0401 (human).
T3 construct: Used as a PE-conjugated peptide/MHCII tetramer assembled by a cited method
The experiment in a line: peptide displayed on HLA-DR tetramer, ex vivo staining.

Test [4] concerns the target T3, HLA-DR molecule DRB1*0401. Put plainly: peptide displayed on HLA-DR tetramer, ex vivo staining of PBMCs.
Description: Biologically relevant pMHCII complexes were identified by tetramer-guided epitope mapping (TGEM). This involved 2 steps: First, PBMC cultures established from subjects with known HLA-DR types were stimulated with RV peptide pools derived from VP1, VP2, or VP4, and then stained with pMHCII tetramer pools composed of HLA-DR molecules corresponding to those expressed in the test subject; Second, positive signals were de-convoluted by repeating and staining with single-peptide tetramers.
All experiments were performed in subjects expressing HLA-DR molecules corresponding to the selected tetramer. Precursor frequencies of circulating tetramer+ cells were then calculated by established methods [43]. Tetramer+ cells were phenotyped for surface markers by staining PBMCs with PE-conjugated tetramers, labeling with anti-PE magnetic beads, enriching with an AutoMACS separator (Miltenyi Biotec, Auburn, Calif., USA), and then counterstaining for surface markers. […] For simplicity, identified RV-A16 peptide epitopes were given a numerical designation.

B1: RV-A16 VP1P23 peptide epitope (peptide)
peptide: PRFSLPFLSIASAYYMFYDG
notes: 20mer from the overlapping RV-A16 VP1 peptide library, loaded on HLA-DR tetramers
For the molecule B1, the binding result in test [1] and in test [2] was “binds” each time.

B2: RV-A16 VP2P24 peptide epitope (peptide)
peptide: PHQFINLRSNNSATLIVPYV
Regarding B2, in test [1], the binding result is on record as “binds”.

B3: RV-A39 VP2169-188 peptide epitope (peptide)
peptide: SDDNWLNFDGTLLGNLLIFP
notes: Residues 169-188 of RV-A39 VP2; also called RV-A39 VP2 peptide
Turning to B3, the binding result in test [3] is given as “binds”.

B4: RV-A39 VP1105-124 peptide epitope (peptide)
peptide: AQVRRKFEMFTYVRFDSEIT
Regarding B4, in test [3], the binding result is given as “binds”.

B5: RV-A16 VP2P21 peptide epitope (peptide)
peptide: NEKQPSDDNWLNFDGTLLGN
notes: 20mer from the overlapping RV-A16 VP2 peptide library, loaded on HLA-DR tetramers
In the case of B5, the binding result in test [4] was “binds”.
